Data reported in the supplement of paper PMC5998384.

System: HeLa Kyoto
Assay: melting temperature (median over replicates), in situ; higher = more thermally stable
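Note: HeLa Kyoto cells synchronized by double thymidine or nocodazole block, proteins quantified by TMT10plex mass spectrometry, three independent biological replicates.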

Row | Sequence | melting temperature (cell cycle stage: mitosis) [°C] | melting temperature (cell cycle stage: G1/S) [°C]
1 | MAAAAAGLGGGGAGPGPEAGDFLARYRLVSNKLKKRFLRKPNVAEAGEQFGQLGRELRAQECLPYAAWCQLAVARCQQALFHGPGEALALTEAARLFLRQERDARQRLVCPAAYGEPLQAAASALGAAVRLHLELGQPAAAAALCLELAAALRDLGQPAAAAGHFQRAAQLQLPQLPLAALQALGEAASCQLLARDYTGALAVFTRMQRLAREHGSHPVQSLPPPPPPAPQPGPGATPALPAALLPPNSGSAAPSPAALGAFSDVLVRCEVSRVLLLLLLQPPPAKLLPEHAQTLEKYSWEAFDSHGQESSGQLPEELFLLLQSLVMATHEKDTEAIKSLQVEMWPLLTAEQNHLLHLVLQETISPSGQGV [F8A1] | 50.9 | 
2 | MAAAELADTQLMLGVGLIEKDTNGEVLWVWCYPSTTATLRNLLLRKCCLTDENKLLHPFVFGQYRRTWFYITIIEVPDSSILKKVTHFSIVLTAKDFNPEKYAAFTRILCRMYLKHGSPVKMMESYIAVLTKGICQSEENGSFLSKDFDARKAYPAGSIKDIVSQFGMETVILHTALMLKKRIVVYHPKIEAVQEFTRTLPALVWHRQDWTILHSYVHLNADELEALQMCTGYVAGFVDLEVSNRPDLYDVFVNLAESEITIAPLAKEAMAMGKLHKEMGQLIVQSAEDPEKSESQVIQDIALKTREIFTNLAPFSEVSADGEKRVLNLEALKQKRFPPATENFLYHLAAAEQMLKI [FAM45BP] | 50.5 | 50.6
3 | MAAEADGPLKRLLVPILLPEKCYDQLFVQWDLLHVPCLKILLSKGLGLGIVAGSLLVKLPQVFKILGAKSAEGLSLQSVMLELVALTGTMVYSITNNFPFSSWGEALFLMLQTITICFLVMHYRGQTVKGVAFLACYGLVLLVLLSPLTPLTVVTLLQASNVPAVVVGRLLQAATNYHNGHTGQLSAITVFLLFGGSLARIFTSIQETGDPLMAGTFVVSSLCNGLIAAQLLFYWNAKPPHKQKKAQ [MPDU1] | 59.2 | 59.2
4 | MAEEEGPPVELRQRKKPKSSENKESAKEEKISDIPIPERAPKHVLFQRFAKIFIGCLAAVTSGMMYALYLSAYHERKFWFSNRQELEREITFQGDSAIYYSYYKDMLKAPSFERGVYELTHNNKTVSLKTINAVQQMSLYPELIASILYQATGSNEIIEPVYFYIGIVFGLQGIYVTALFVTSWLMSGTWLAGMLTVAWFVINRVDTTRIEYSIPLRENWALPYFACQIAALTGYLKSNLNTYGERFCYLLMSASTYTFMMMWEYSHYLLFLQAISLFLLDTFSVEQSDKVYEVYKIYIFSLFLGYLLQFENPALLVSPLLSLVAALMLAKCLQLNVKKGSFVAKIIKVINFYLVCTLTITLNIIMKMFVPHKENGHMLKFLEVKFGLNMTKNFTMNWLLCQESLQAPSQDFFLRLTQSSLLPFYILVLIICFLSMLQVIFRRINGKSLKETVTLEDGRIGERPEIIYHVIHTILLGSLAMVIEGLKYIWIPYVCMLAAFGVCSPELWMTLFKWLRLRTVHPILLALILSMAVPTIIGLSLWKEFFPRLMTELMELQEFYDPDTVELMTWIKRQAPVAAVFAGSPQLMGAIKLCTGWMVTSLPLYNDDDLLKRNENIYQIYSKRSAEDIYKILTSYKANYLIVEDAICNEVGPMRGCRVKDLLDIANGHMVCEEGDKLTYSKYGRFCHEVKINYSPYVNYFTRVYWNRSYFVYKINTVISFQS [DPY19L4] | 56.9 | 54.5
5 | MAEEMESSLEASFSSSGAVSGASGFLPPARSRIFKIIVIGDSNVGKTCLTYRFCAGRFPDRTEATIGVDFRERAVEIDGERIKIQLWDTAGQERFRKSMVQHYYRNVHAVVFVYDMTNMASFHSLPSWIEECKQHLLANDIPRILVGNKCDLRSAIQVPTDLAQKFADTHSMPLFETSAKNPNDNDHVEAIFMTLAHKLKSHKPLMLSQPPDNGIILKPEPKPAMTCWC [RAB33B] | 55 | 54.3
6 | MAELQMLLEEEIPGGRRALFDSYTNLERVADYCENNYIQSADKQRALEETKAYTTQSLASVAYLINTLANNVLQMLDIQASQLRRMESSINHISQTVDIHKEKVARREIGILTTNKNTSRTHKIIAPANLERPVRYIRKPIDYTILDDIGHGVKWLLRFKVSTQNMKMGGLPRTTPPTQKPPSPPMSGKGTLGRHSPYRTLEPVRPPVVPNDYVPSPTRNMAPSQQSPVRTASVNQRNRTYSSSGSSGGSHPSSRSSSRENSGSGSVGVPIAVPTPSPPSVFPAPAGSAGTPPLPATSASAPAPLVPATVPSSTAPNAAAGGAPNLADGFTSPTPPVVSSTPPTGHPVQFYSMNRPASRHTPPTIGGSLPYRRPPSITSQTSLQNQMNGGPFYSQNPVSDTPPPPPPVEEPVFDESPPPPPPPEDYEEEEAAVVEYSDPYAEEDPPWAPRSYLEKVVAIYDYTKDKEDELSFQEGAIIYVIKKNDDGWYEGVMNGVTGLFPGNYVESIMHYSE [ABI2] | 52.5 | 52.3
7 | MAGAGPTMLLREENGCCSRRQSSSSAGDSDGEREDSAAERARQQLEALLNKTMRIRMTDGRTLVGCFLCTDRDCNVILGSAQEFLKPSDSFSAGEPRVLGLAMVPGHHIVSIEVQRESLTGPPYL [NAA38] | 52.4 | 52.1
8 | MAPRGRKRKAEAAVVAVAEKREKLANGGEGMEEATVVIEHCTSURVYGRNAAALSQALRLEAPELPVKVNPTKPRRGSFEVTLLRPDGSSAELWTGIKKGPPRKLKFPEPQEVVEELKKYLS [C11ORF31] | 52.2 | 
9 | MASRWWRWRRGCSWKPAARSPGPGSPGRAGPLGPSAAAEVRAQVHRRKGLDLSQIPYINLVKHLTSACPNVCRISRFHHTTPDSKTHSGEKYTDPFKLGWRDLKGLYEDIRKELLISTSELKEMSEYYFDGKGKAFRPIIVALMARACNIHHNNSRHVQASQRAIALIAEMIHTASLVHDDVIDDASSRRGKHTVNKIWGEKKAVLAGDLILSAASIALARIGNTTVISILTQVIEDLVRGEFLQLGSKENENERFAHYLEKTFKKTASLIANSCKAVSVLGCPDPVVHEIAYQYGKNVGIAFQLIDDVLDFTSCSDQMGKPTSADLKLGLATGPVLFACQQFPEMNAMIMRRFSLPGDVDRARQYVLQSDGVQQTTYLAQQYCHEAIREISKLRPSPERDALIQLSEIVLTRDK [PDSS1] | 51.7 | 
10 | MEALLLGAGLLLGAYVLVYYNLVKAPPCGGMGNLRGRTAVVTGANSGIGKMTALELARRGARVVLACRSQERGEAAAFDLRQESGNNEVIFMALDLASLASVRAFATAFLSSEPRLDILIHNAGISSCGRTREAFNLLLRVNHIGPFLLTHLLLPCLKACAPSRVVVVASAAHCRGRLDFKRLDRPVVGWRQELRAYADTKLANVLFARELANQLEATGVTCYAAHPGPVNSELFLRHVPGWLRPLLRPLAWLVLRAPRGGAQTPLYCALQEGIEPLSGRYFANCHVEEVPPAARDDRAAHRLWEASKRLAGLGPGEDAEPDEDPQSEDSEAPSSLSTPHPEEPTVSQPYPSPQSSPDLSKMTHRIQAKVEPEIQLS [DHRS13] | 50 | 
11 | MEEKQILCVGLVVLDVISLVDKYPKEDSEIRCLSQRWQRGGNASNSCTVLSLLGAPCAFMGSMAPGHVADFLVADFRRRGVDVSQVAWQSKGDTPSSCCIINNSNGNRTIVLHDTSLPDVSATDFEKVDLTQFKWIHIEGRNASEQVKMLQRIDAHNTRQPPEQKIRVSVEVEKPREELFQLFGYGDVVFVSKDVAKHLGFQSAEEALRGLYGRVRKGAVLVCAWAEEGADALGPDGKLLHSDAFPPPRVVDTLGAGDTFNASVIFSLSQGRSVQEALRFGCQVAGKKCGLQGFDGIV [KHK] |  | 54.2
12 | MFSLPLNCSPDHIRRGSCWGRPQDLKIAAPAWNSKCHPGAGAAMARQHARTLWYDRPRYVFMEFCVEDSTDVHVLIEDHRIVFSCKNADGVELYNEIEFYAKVNSKPVWLSVDFDNWRDWEGDEEMELAHVEHYAELLKKVSTKRPPPAMDDLDDDSDSADDATSN [PTGES3L] | 49.9 | 49.8
13 | MGDMANSSIEFHPKPQQQRDVPQAGGFGCTLAELRTLMELRGAEALQKIEEAYGDVSGLCRRLKTSPTEGLADNTNDLEKRRQIYGQNFIPPKQPKTFLQLVWEALQDVTLIILEVAAIVSLGLSFYAPPGEESEACGNVSGGAEDEGEAEAGWIEGAAILLSVICVVLVTAFNDWSKEKQFRGLQSRIEQEQKFTVIRNGQLLQVPVAALVVGDIAQVKYGDLLPADGVLIQANDLKIDESSLTGESDHVRKSADKDPMLLSGTHVMEGSGRMVVTAVGVNSQTGIIFTLLGAGGEEEEKKDKKGKQQDGAMESSQTKAKKQDGAVAMEMQPLKSAEGGEMEEREKKKANAPKKEKSVLQGKLTKLAVQIGKAGLVMSAITVIILVLYFVIETFVVEGRTWLAECTPVYVQYFVKFFIIGVTVLVVAVPEGLPLAVTISLAYSVKKMMKDNNLVRHLDACETMGNATAICSDKTGTLTTNRMTVVQSYLGDTHYKEIPAPSALTPKILDLLVHAISINSAYTTKILPPEKEGALPRQVGNKTECALLGFVLDLKRDFQPVREQIPEDKLYKVYTFNSVRKSMSTVIRMPDGGFRLFSKGASEILLKKCTNILNSNGELRGFRPRDRDDMVRKIIEPMACDGLRTICIAYRDFSAGQEPDWDNENEVVGDLTCIAVVGIEDPVRPEVPEAIRKCQRAGITVRMVTGDNINTARAIAAKCGIIQPGEDFLCLEGKEFNRRIRNEKGEIEQERLDKVWPKLRVLARSSPTDKHTLVKGIIDSTTGEQRQVVAVTGDGTNDGPALKKADVGFAMGIAGTDVAKEASDIILTDDNFTSIVKAVMWGRNVYDSISKFLQFQLTVNVVAVIVAFTGACITQDSPLKAVQMLWVNLIMDTFASLALATEPPTESLLLRKPYGRDKPLISRTMMKNILGHAVYQLAIIFTLLFVGELFFDIDSGRNAPLHSPPSEHYTIIFNTFVMMQLFNEINARKIHGERNVFDGIFSNPIFCTIVLGTFGIQIVIVQFGGKPFSCSPLSTEQWLWCLFVGVGELVWGQVIATIPTSQLKCLKEAGHGPGKDEMTDEELAEGEEEIDHAERELRRGQILWFRGLNRIQTQIRVVKAFRSSLYEGLEKPESKTSIHNFMATPEFLINDYTHNIPLIDDTDVDENEERLRAPPPPSPNQNNNAIDSGIYLTTHVTKSATSSVFSSSPGSPLHSVETSL [ATP2B3] |  | 54.2
14 | MGKEKTHINIVVIGHVDSGKSTTTGHLIYKCGGIDKRTIEKFEKEAAEMGKGSFKYAWVLDKLKAERERGITIDISLWKFETSKYYVTIIDAPGHRDFIKNMITGTSQADCAVLIVAAGVGEFEAGISKNGQTREHALLAYTLGVKQLIVGVNKMDSTEPPYSQKRYEEIVKEVSTYIKKIGYNPDTVAFVPISGWNGDNMLEPSANMPWFKGWKVTRKDGNASGTTLLEALDCILPPTRPTDKPLRLPLQDVYKIGGIGTVPVGRVETGVLKPGMVVTFAPVNVTTEVKSVEMHHEALSEALPGDNVGFNVKNVSVKDVRRGNVAGDSKNDPPMEAAGFTAQVIILNHPGQISAGYAPVLDCHTAHIACKFAELKEKIDRRSGKKLEDGPKFLKSGDAAIVDMVPGKPMCVESFSDYPPLGRFAVRDMRQTVAVGVIKAVDKKAAGAGKVTKSAQKAQKAK [EEF1A1] | 52.4 | 52.4
15 | MGLELFLDLVSQPSRAVYIFAKKNGIPLELRTVDLVKGQHKSKEFLQINSLGKLPTLKDGDFILTESSAILIYLSCKYQTPDHWYPSDLQARARVHEYLGWHADCIRGTFGIPLWVQVLGPLIGVQVPEEKVERNRTAMDQALQWLEDKFLGDRPFLAGQQVTLADLMALEELMQPVALGYELFEGRPRLAAWRGRVEAFLGAELCQEAHSIILSILEQAAKKTLPTPSPEAYQAMLLRIARIP [GSTT2B] | 55.1 | 54.9
